According to patent US20250026849A1 (ARCELLX, published 2025):
Where a chain is given by its changes, count along the chain named.

B1: D domain of SEQ ID NO: 394 (designed binder)
chain: MGSWDEFEQRLIAIEERLFALGGSEAELAAFEKEIAAFESELQAYKGKGNPEVEWLREEAAVIRKYLQAYRHN
B2: D domain of SEQ ID NO: 367 (designed binder)
chain: MGSWDEFAWRLDVIFARLGALGGSEAELAAFEKEIAAFESELQAYKGKGNPEVEELRKNAAQIRDGLQAYRHN
B3: D domain of SEQ ID NO: 398 (designed binder)
chain: MGSWHEFDQRLWAIEERLWALGGSEAELAAFEKEIAAFESELQAYKGKGNPEVETLRLYAALIRHDLQAYRHN
B4: D domain of SEQ ID NO: 406 (designed binder)
chain: MGSWFEFNYRLGAIEDRLWALGGSEAELAAFEKEIAAFESELQAYKGKGNPEVEMLRQIAAEIREFLQAYRHN
B5: D domain of SEQ ID NO: 366 (designed binder)
chain: MGSWEEFAQRLYAIEWRLYALGGSEAELAAFEKEIAAFESELQAYKGKGNPEVEVLRYVAAQIRYHLQAYRHN
B6: D domain of SEQ ID NO: 385 (designed binder)
chain: B1 chain with E8G, Q9R, I12Y, E16W, F19Y, W55K, E59I, K65S, Y66N
B7: D domain of SEQ ID NO: 360 (designed binder)
chain: MGSWTEFVWRLEAIWDRLDALGGSEAELAAFEKEIAAFESELQAYKGKGNPEVEVLREDAAVIRHFLQAYRHN
B8: D domain of SEQ ID NO: 436 (designed binder)
chain: MGSWSEFNMRLDAIYERLTALGGSEAELAAFEKEIAAFESELQAYKGKGNPEVEWLRHSAALIRLELQAYRHN
B9: D domain of SEQ ID NO: 463 (designed binder)
chain: MGSWYEFDYRLDAIYDRLAALGGSEAELAAFEKEIAAFESELQAYKGKGNPEVERLRKWAANIREELQAYRHN
B10: D domain of SEQ ID NO: 455 (designed binder)
chain: B8 chain with S5T, N8A, M9W, E16D, T19L, S59V, L62N, L65R
B11: D domain of SEQ ID NO: 462 (designed binder)
chain: B9 chain with Y5F, D8Y, Y9M, A19T, K58T, W59F, E65K
B12: D domain of SEQ ID NO: 458 (designed binder)
chain: B9 chain with D8S, Y9M, A19M, R55Q, K58G, W59Y, E65N
B13: D domain of SEQ ID NO: 446 (designed binder)
chain: B9 chain with Y5S, D8H, Y9V, D16A, A19D, K58E, E65R
B14: D domain of SEQ ID NO: 453 (designed binder)
chain: B8 chain with S5V, M9W, E16D, T19V, H58V, L62K, L65G
B15: D domain of SEQ ID NO: 450 (designed binder)
chain: B9 chain with Y5H, D8G, Y9V, A19M, R55F, K58Q, W59A, E65S
B16: D domain of SEQ ID NO: 456 (designed binder)
chain: B9 chain with Y5V, D8S, Y9I, D16T, A19V, R55M, W59G, E65K
B17: D domain of SEQ ID NO: 441 (designed binder)
chain: B8 chain with S5V, N8Y, M9T, E16G, T19D, H58Q, S59V, L62N, L65M
B18: D domain of SEQ ID NO: 449 (designed binder)
chain: B8 chain with S5V, M9I, T19Y, W55K, S59W, L62S, L65R
B19: D domain of SEQ ID NO: 451 (designed binder)
chain: B8 chain with S5T, M9L, E16D, T19M, H58A, L62A, L65V
B20: D domain of SEQ ID NO: 439 (designed binder)
chain: B8 chain with S5Y, N8A, M9K, T19V, H58S, L62N, L65E
B21: D domain of SEQ ID NO: 437 (designed binder)
chain: B8 chain with S5I, T19V, H58K, S59V, L62N
B22: D domain of SEQ ID NO: 454 (designed binder)
chain: B9 chain with Y5N, D8A, Y9W, D16S, R55W, K58V, W59A, E65Y
B23: D domain of SEQ ID NO: 452 (designed binder)
chain: B8 chain with S5T, M9L, E16G, T19S, W55F, H58A, S59A, L62N, L65V
B24: D domain of SEQ ID NO: 443 (designed binder)
chain: B9 chain with D8A, Y9I, D16E, A19H, R55Y, K58V, E65T
B25: D domain of SEQ ID NO: 464 (designed binder)
chain: B9 chain with Y5S, D8Y, Y9L, A19D, R55W, W59T
B26: D domain of SEQ ID NO: 448 (designed binder)
chain: B9 chain with Y5V, D8E, Y9M, Y15V, D16G, A19Y, R55K, K58R, E65S
B27: D domain of SEQ ID NO: 460 (designed binder)
chain: B9 chain with Y5I, D8E, Y9V, D16N, K58R, W59Y, E65H
B28: D domain of SEQ ID NO: 440 (designed binder)
chain: B8 chain with S5T, N8Y, M9V, T19D, H58M, S59V, L62N, L65T
B29: D domain of SEQ ID NO: 457 (designed binder)
chain: B9 chain with Y5V, D8Y, Y9I, D16V, A19M, R55K, K58S, W59Y, E65Q
B30: D domain of SEQ ID NO: 444 (designed binder)
chain: B8 chain with S5N, N8V, M9I, T19L, W55Y, H58M, S59A, L62N, L65M
B31: D domain of SEQ ID NO: 447 (designed binder)
chain: B9 chain with Y5V, D8H, Y9L, D16G, A19M, R55N, K58V, E65N
B32: D domain of SEQ ID NO: 438 (designed binder)
chain: B8 chain with S5Y, N8H, M9H, T19L, H58S, L62N, L65K
B33: D domain of SEQ ID NO: 461 (designed binder)
chain: B9 chain with Y5F, D8Y, Y9D, D16M, A19I, R55V, K58R, W59Y, E65A
B34: D domain of SEQ ID NO: 445 (designed binder)
chain: B9 chain with Y5S, D8Y, Y9V, L11V, D16A, A19S, R55K, K58V, E65H
B35: D domain of SEQ ID NO: 459 (designed binder)
chain: B9 chain with Y5V, D8I, A19E, R55V, K58R, W59Y, E65N
B36: D domain of SEQ ID NO: 395 (designed binder)
chain: MGSWVEFDQRLGAIWDRLVALGGSEAELAAFEKEIAAFESELQAYKGKGNPEVEHLRQGAAVIRDDLQAYRHN
B37: D domain of SEQ ID NO: 399 (designed binder)
chain: MGSWVEFWDRLDAIEGRLWALGGSEAELAAFEKEIAAFESELQAYKGKGNPEVEDLRWLAAEIRADLQAYRHN
B38: D domain of SEQ ID NO: 407 (designed binder)
chain: MGSWEEFFTRLDAINERLEALGGSEAELAAFEKEIAAFESELQAYKGKGNPEVEMLRYEAAEIRHMLQAYRHN
B39: D domain of SEQ ID NO: 368 (designed binder)
chain: MGSWDEFYYRLEAIEMRLGALGGSEAELAAFEKEIAAFESELQAYKGKGNPEVEELRHYAAQIRHMLQAYRHN
B40: D domain of SEQ ID NO: 369 (designed binder)
chain: B39 chain with D5E, Y9D, E15Y, M16N, E55V, H58E, Q62D, H65E

Target: T1, CD123 (Homo sapiens (Human), UniProt P26951 19-305, limits assumed)
T1 construct: The CD123 construct used in the ELISA is not described; also called CD123-Signal
T1 sequence: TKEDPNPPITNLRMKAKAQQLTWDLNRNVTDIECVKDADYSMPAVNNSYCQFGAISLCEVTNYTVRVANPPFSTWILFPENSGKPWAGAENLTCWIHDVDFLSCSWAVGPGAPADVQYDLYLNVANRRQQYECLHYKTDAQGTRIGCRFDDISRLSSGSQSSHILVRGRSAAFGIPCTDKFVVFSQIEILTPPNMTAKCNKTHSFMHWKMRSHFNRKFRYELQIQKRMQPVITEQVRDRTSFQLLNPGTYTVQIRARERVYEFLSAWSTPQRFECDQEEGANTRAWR
Assay: ELISA
Parameters: unit not given here

Binder	ELISA_avg
B1	5.9
B2	4.6
B3	3.3
B4	6.9
B5	16.9
B6	5.8
B7	3.6
B8	11.4
B9	24.9
B10	16.1
B11	13.1
B12	13
B13	14.4
B14	9.3
B15	15.6
B16	15.1
B17	14.4
B18	13.4
B19	14.4
B20	15.3

Binder	ELISA_avg
B21	11.4
B22	17.7
B23	19.3
B24	25.5
B25	15.7
B26	25.3
B27	20.8
B28	16
B29	16.1
B30	16.6
B31	17.5
B32	11.9
B33	13.6
B34	14.7
B35	17
B36	5.3
B37	3.5
B38	3.9
B39	7.2
B40	18.6
